US20240245805A1 (Orna Therapeutics, Inc., priority 2020, published 2024)

B1: Rabovirus A (nucleic acid)
DNA: CTACGGATATTTGCATGACCCGCTTTCTATCGCCCCAACAATCCCCTTTGTAACCACAAGCTTTACTCAGGCTAGCAGCCCGACTAGCTGTTTGGAAGAAAAGGCTAGGGCACACACCAACAACACCGACCCCACTGGTCGAAGGCCGCTTGGCAATAAGACTGGTGGAACAGGGTCGCCTGTAGTTGTTTGGAACATTCTTTCTAATGACTTTGTCAGCGGTGCTACTCACACCGTAACTCTTCTACCCTATCCCCACGCTTGTGGAACTAGGAGGGGATGAGTGATTCAAGTAAGTACTGTCAGAATGGTGAAAATGATCTGATTCTGAAACGCTATGGATCCATCGAAAGATGGGGCTACACGCCTGCGGAACAACACATGGTAACATGTGCCCCAGGGGCCGAAAGCCACGGTGATAGGATCACCCGTGTAGTTTGAGATCATATCAATGTTCATAGTCTAGTAAGATGATTTGAAATCTAACTGAGCTGATGGCTAACTGCTTGTCTTATTGCGGCCTAAGGATGTCCTGCAGGTACCTTTAGATAACCTTAAGAGACTATTGATCTGAGCAGGAGCCAAAGTGGTCTTTCCCAGCTTTGGTTAAAAAACGTCTAAGCCGCGGCAGGGGGCGGGAGGCCCCCTTTCCTCCCAAAACTTAATATTGATTGT
modifications: lipid formulation; Rabovirus A
B2: Miniopterus schreibersii picornavirus 1 (nucleic acid)
DNA: GTTGTCGACCCGTTGCTTGGTTTAAGCATGAGGTGGATTCCCCCGATTATGTCTACCCGTTACTATGGCGGGCGGTCGTTTCAGGGTGTTTCTACTGAGGACTGCACCAAGTCTTTATCTTTTATTCTCAGATCTCCGGCTGTTTGACGCTTGTAGGACAGCAGGACTATTTTCTCTTAATCTTTTTCTACCCACTAGGGTCCTATCCTAGTGGAGGGAGGGTGCCACCCCTTCTCTCTTTAGAGAGTGCGCCTGGCGGTCTTTCCGTCTCTGGAAAAAGGAGCACATGGCATGCTACAATTGGCACAAGAAAACAAGCTTTGCGGATTCTTTCTTTGTACTAGAGGAAGCTGTAGCGACCCTGTATGGCGAGCGGACTCCCCTCTCGGCGACGAGAGCCTCTCGGGCCAAAAGCCAAGTGTTAATAGCACCCATACAGGCGGCAGTACCCCACTGCCCTTTCTCAACATACAATGACTGATGAACCACTGTTGGTTTTTCTGACACCTTTGTAGTAGGATTCCAAGGAATGTCCTGAAGGTACCCTGTTAGCTTACGCGCAGGATCTGATCAGGAGTCTCTTTACAGTGCTGTACACTGTGCAAGGGATTAAAAATTGTTTGAGGAATCCCCGAGATAGTGGTCTATCTCTTCCTATTTTGTTTTACAGACACG
modifications: lipid formulation; source: /note="Description of Unknown: Miniopterus schreibersii picornavirus 1 sequence"
B3: Lesavirus 1 (nucleic acid)
DNA: GTAACTAATAAGCAAGTTTTACTGCCTGCAAACTGCTTCAATGGGACCACCGCTTCGGCGACCCCTTTGTTGAGTTTGTATGTTTTTAAGTAATCTTTGCAACCATACGATTATTTTAGCCGCCTCTCTATAATGATCTTGTTATAGTGGGACGTGAAACATTGGTTTTTCTCACACACGTCCGGTCACCCGGGCGTGTGTTCTTCCGTAAGTCCTATCCACATACCATCGTGGGTAGGCCAGCATGTTTGCACAGGCTGTGACAGTGTGGGTGGGCTTTCCACCTCTCAACAACACACTGAATTGCAATGCACTCACGGAGGAAATGACAATTTGGTTATAGTTTTGAACTGTGCTAGTAATTTCTTTCACATTAAGCCATGTTGCCTGCGGAATCACATGTGGTAACACATGCCTCAGGGCCCAAAAGGCACGGGTTAGCAGCCCCTTCATGGTGTGTTAGAAGTGAAAACACATAGTATGAGCTATAATATCTTTGTTGTCTTCTCTGTAGTGTACCCCGCCAAATGTAAGGATGCCCAGCAGGTACCCATTTTATGGATCTGAGCTGGGGATTGATAGTGTATCTATAAATGCACTGATCAATTTAAAAAGCGTCTAAGTTTGGCACAAACACTGGGGACAGTGTTTTTCCTTTATTCTTTTATTTGATTA
modifications: lipid formulation; source: /note="Description of Unknown: Lesavirus 1 sequence"
B4: Kashmir bee virus: "an IRES is an IRES sequence of ... Kashmir bee virus" (nucleic acid)
DNA: TACGTACAATTTTGACGCTTCGTTCATGCAACAATGAACTCACATGTGGCGCTCGGTAGTAACCAGAGGGGCGTCATTCCCCCGTATGGAGTGGAGAATATAAGCTACCGACTCGAGCTGTAGAATAATTCAGCAACTTATAACGAACACGAATTTTAGTCGACGAAACCATTTTAGCCTTTAATTCTATGATTTGATTATAATGATAAACAGCTCATGTAACTGTCTAAACTACATAAATACAACTGGATTACGAACCTTTAAGTAACTATCTTAGATGAAGTCTAGTAGTCTCCCAATATTTCCGTGAAAAGAATGAGGGACGAGATAGCTCTATTTAAAGACGTGAGGCTTTAAATTCTGATAAATACATTACCTGAGAATTCCTCCTTTAGGAGTTAGAATTTGAAAAGATTAGTACCTATACTTAATAGAATTTAAATATGTTAATAATGCTGAAGACAAGTATTTCGATTATTAACCTCTATATTTCTATATAAAGTATCTGTGAGTCTCAGTGGACATCACAGTAAGGTCGCAGTTAACTTGTAATCTTTTCATTCCTGTGTCGGAGCAGTGGTAATGGAGCCGGACGATTTCGCCAAAAC
modifications: Kashmir bee virus
B5: Porcine reproductive and respiratory syndrome virus 2 (nucleic acid)
DNA: ATGACGTATAGGTGTTGGCTCTATGCCTTGGCATTTGTATTGTCAGGAGCTGTGACCATTGGCACAGCCCAAAACTTGCTGCACAGAAACACCCTTCTGTGATAGCCTCCTTCAGGGGAGCTTAGGGTTTGTCCCTAGCACCTTGCTTCCGGAGTTGCACTGCTTTACGGTCTCTCCACCCCTTTAACC
modifications: lipid formulation; source: /note="Description of Unknown: Porcine reproductive and respiratory syndrome virus 2 sequence"
B6: Jingmen picorna-like virus (nucleic acid)
DNA: TGTGTTTTTGTCAAGATAATTGTTCTGTGATTAACAGTGATTGTGGTTCGTGTAATGCGACGCAGTCAAATGCTAGTTTTGATGAAGTGTATGAGAGAGTGGAAAACTTATCTCATAAGAAGATTGAAGAGTGTGTAGATCAGGCTATTGATCGAGCTTCTAAGCTTCGTGATTACAAGCTTAATGTTCACAATGGCTCCCGACGGGAATCATCTGATCCTCTCTTTATTTCGCCCCATTCGTTGTTATCGCTTGGGGTATCTAAGTTTGTTGCGTTTGAGCAGCATCACAGTTTCGCTTCAGTTGAGTCTCTGAAGTTGCTTGCTCTGTCT
modifications: source: /note="Description of Unknown: Jingmen picorna-like virus sequence"
B7: Shingleback nidovirus 1 (nucleic acid)
DNA: CTGTGAGTACCGACAGGCTCGAAGTCTATTATGAGGCGTCGAAACAGAAAACCTGTAACAACTCCGGTTTCATCTATCACTGCCGTCAAGAGGCAGAAGAGGACGACCACGTGTCACCAGATCACTTGTATCTGTTTCAGTCAGGAAGTCAACTTTTCGACGAAGTTCGACCATTCATCGACCCGCTGAAAAGCGTAGAAGTCGATGAAGATGAGCTCCAAAGAGCCATCGCCGATTTCGACAACCAAAGTGACTGTTTCCACTCCTTCGAGCTCGTGAATTTCGAGCTGAAACAACAAATCAACGAGAACGAGTGGTACGGTTATTATAATTACGACAACCAAAACTGCAAAGTTCAGTTGCCAGTCACATGTCGAATCGAGGACGTAACCTGGGATCAGGTTTACGTG
modifications: Shingleback nidovirus 1
B8: Picornavirales Tottori-HG1 (nucleic acid)
DNA: AGCCATGAACTAGTGTGCGATTCCCACAGTGTTGGTCGAAAGCCCCGCACTGTCTACTCGCATATTTGACTCCAGTCCTTCCGCAGCCAGCGGTTAGGTTCTGGTTAAAGTGCATTATGTGCACGGCGCCACGCAGAACTGCCAGAAATGGTAAGCTGCGCCCAACGCCAACGGTTTGTGTATCCCGTTAGTCACACGTTTACAGCTGTTCGTTAACAGTAGGGTTTTGTCGACCCGGACCCCTTAATGCGCGCGAATTCAACCGCGCCTAGTCGGCAATGGTATCATTTAATCCCATGCACTACGGGAGAAATTTGAGACCAAAGAATTCCTGAGGGCCACTGCTTGCTCTAAGTGCAATGCCTCGGGAGACTTCTGTCAGGAGCCTAGCGGCTTTCAACCGCGACAGCTAACTCCTGCGGGATGTTTGGTGTCCATACTTACTGGCGTCCTCACAACGCTAAGTGGATGTTGTCCACAGGTAGGCAAACACCGAGCCCCACATTCAGGAGACCTGTATGAACGATCCTATCAGCATTAGAGTTGGAATTGGGTGTGCTAACGTCCGCATAAGTGCACCCCGTGGTAACGCTGGGAAACTATCCAGCGCAACGTACTGTCCTCAATGTCTAGGGAAGGACCGCCCTAAGCGTACAACCGGGCCATGTGTCGAGC
modifications: lipid formulation; source: /note="Description of Unknown: Picornavirales Tottori-HG1 sequence"
B9: Seneca valley virus (nucleic acid)
DNA: TTTGAAATGGGGGGCTGGGCCCTGATGCCCAGTCCTTCCTTTCCCCTTCCGGGGGGTTAACCGGCTGTGTTTGCTAGAGGCACAGAGGGGCAACATCCAACCTGCTTTTGCGGGGAACGGTGCGGCTCCGATTCCTGCGTCGCCAAAGGTGTTAGCGCACCCAAACGGCGCACCTACCAATGTTATTGGTGTGGTCTGCGAGTTCTAGCCTACTCGTTTCTCCCCCGACCATTCACTCACCCACGAAAAGTGTGTTGTAACCATAAGATTTAACCCCCGCACGGGATGTGCGATAACCGTAAGACTGGCTCAAGCGCGGAAAGCGCTGTAACCACATGCTGTTAGTCCCTTTATGGCTGCAAGATGGCTACCCACCTCGGATCACTGAACTGGAGCTCGACCCTCCTTAGTAAGGGAACCGAGAGGCCTTCGTGCAACAAGCTCCGACACAGAGTCCACGTGACTGCTACCACCATGAGTACATGGTTCTCCCCTCTCGACCCAGGACTTCTTTTTGAATATCCACGGCTCGATCCAGAGGGTGGGGCATGACCCCTAGCATAGCGAGCTACAGCGGGAACTGTAGCTAGGCCTTAGCGTGCCTTGGATACTGCCTGATAGGGCGACGGCCTAGTCGTGTCGGTTCTATAGGTAGCACATACAAAT
modifications: source: /note="Description of Unknown: Seneca valley virus sequence"

Test system: HEK293 cells
Type: cell-based, human
Settings: circular RNA encoding Gluc with the listed IRES (UTR truncated to 675 nt) transfected into HEK293 cells; supernatant after 24 hours

Row | Molecule | Expression (luminescence from secreted Gluc protein)
1 | B1 | 2.88E+06
2 | B2 | 6.05E+06
3 | B3 | 6.37E+06
4 | B4 | 1.65E+05
5 | B5 | 1.29E+05
6 | B6 | 9.32E+04
7 | B7 | 2.62E+05
8 | B8 | 9.54E+04
9 | B9 | 1.46E+07
